Test results as given in patent US20240294604A1.

What was measured:
Conditions in all cases: remark: other sources report otherwise
[1] = molecular target: T1, A Proliferation Inducing Ligand (APRIL) (human), O75888; assay: cell binding titration by flow cytometry; soluble APRIL varied to 10 nM on cells displaying the BCMA clone
T1 chain: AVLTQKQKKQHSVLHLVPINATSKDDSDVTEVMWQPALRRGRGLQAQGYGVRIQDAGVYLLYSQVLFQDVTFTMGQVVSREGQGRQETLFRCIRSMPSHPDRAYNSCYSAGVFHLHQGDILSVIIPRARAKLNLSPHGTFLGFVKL

[2] = molecular target: T1, A Proliferation Inducing Ligand (APRIL) …; assay: flow cytometry titration of soluble APRIL on yeast displaying BCMA; one site specific binding fit; A.U. from the axis 'Cell binding (A.U.)'
[3] = molecular target: T1, A Proliferation Inducing Ligand (APRIL) …; assay: binding assay of FIG. 1 (flow cytometry titration, one-site specific binding fit; format not stated); Example 4 results, unit printed µM
[4] = molecular target: T1, A Proliferation Inducing Ligand (APRIL) …; assay: binding assay of FIG. 1 (flow cytometry titration, one-site specific binding fit; format not stated); FIG. 1 legend, unit printed pM
[5] = molecular target: BAFF; assay: cell binding titration by flow cytometry; soluble BAFF varied to 10 nM on cells displaying the BCMA clone; Kd and BP printed as N.D
[6] = molecular target: T1, A Proliferation Inducing Ligand (APRIL) …; assay: flow cytometry titration of soluble APRIL (about 0.0005 to 10 nM) on yeast displaying BCMA; one site specific binding fit, nM is the unit of the concentration axis
[7] = molecular target: T1, A Proliferation Inducing Ligand (APRIL) …; assay: cell binding titration by flow cytometry; soluble APRIL varied to 10 nM on cells displaying the BCMA clone; BP is not defined in the filing

Chain of BAFF (chain, as listed by the source): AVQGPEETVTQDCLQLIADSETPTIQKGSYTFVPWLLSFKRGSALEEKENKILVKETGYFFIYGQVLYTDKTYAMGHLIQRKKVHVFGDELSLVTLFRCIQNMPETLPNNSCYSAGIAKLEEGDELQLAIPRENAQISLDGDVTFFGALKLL

B1: wild type human BCMA extracellular domain (sBCMA WT ECD), Q02223 1-54 (receptor)
chain: MLQMAGQCSQNEYFDSLLHACIPCQLRCSSNTPPLTCQRYCNASVTNSVKGTNA
- Bmax [1]: 6560 A.U.
- Kd [1]: 0.025 nM
- Bmax [2]: 9930 A.U.
- Kd [3]: 0.032 nM
- Kd [4]: 0.032 nM
- Bmax [5]: 78.3 A.U.
- Kd [6]: 0.0323 nM
- BP [7]: 263
